In US20120316071A1 (published 2012):
Where a chain is given by its changes, count along the chain named. In names and notes the source's numbering stands.

Columns and labels:
[1] = target: T1, rHuman HGF R/c-MET/Fc Chimera, CF (R&D Systems Cat#358-MT/CF) (human, UniProt P08581 25-932); experiment: ECL Multispot (MSD), antigen spotted on plate, Fab in solution; blank spot 256
[2] = target: T2, rHuman Notch-1/Fc Chimera, CF (R&D Systems Cat#3647-TK) (human); experiment: as above
T2 chain: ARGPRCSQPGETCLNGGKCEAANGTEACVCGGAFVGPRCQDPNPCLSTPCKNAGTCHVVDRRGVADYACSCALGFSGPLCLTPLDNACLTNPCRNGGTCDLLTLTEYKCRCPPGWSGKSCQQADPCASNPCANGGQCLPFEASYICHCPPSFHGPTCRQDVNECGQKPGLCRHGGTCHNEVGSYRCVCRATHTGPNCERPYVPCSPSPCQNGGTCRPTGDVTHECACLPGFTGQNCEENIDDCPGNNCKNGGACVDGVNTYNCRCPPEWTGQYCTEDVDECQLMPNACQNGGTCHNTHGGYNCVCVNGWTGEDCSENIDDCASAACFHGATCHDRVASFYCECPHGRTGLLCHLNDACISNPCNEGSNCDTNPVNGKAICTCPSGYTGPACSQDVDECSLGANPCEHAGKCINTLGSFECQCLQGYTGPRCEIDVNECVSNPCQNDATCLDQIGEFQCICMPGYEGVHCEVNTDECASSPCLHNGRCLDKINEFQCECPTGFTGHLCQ

[3] = target: T3, rHuman CD44/Fc Chimera, CF (R&D Systems Cat#3660-CD) (human, UniProt P16070 21-220); experiment: as above
[4] = target: T4, rHuman P-Cadherin/Fc Chimera, CF (R&D Systems Cat#861-PC) (human, UniProt P22223 108-654); experiment: as above
[5] = target: T5, rHuman Erythropoietin R/Fc Chimera, CF (R&D Systems Cat#963-ER) (human, UniProt P19235 25-250); experiment: as above
[6] = target: T2, rHuman Notch-1/Fc Chimera, CF (R&D …); experiment: ECL Multispot (MSD), antigen spotted on plate, Fab in solution; blank spot 331
[7] = target: T3, rHuman CD44/Fc Chimera, CF (R&D Systems …); experiment: as above
[8] = target: T4, rHuman P-Cadherin/Fc Chimera, CF (R&D …); experiment: as above
[9] = target: T5, rHuman Erythropoietin R/Fc Chimera, CF …; experiment: as above
[10] = target: T1, rHuman HGF R/c-MET/Fc Chimera, CF (R&D …); experiment: ECL Multispot (MSD), antigen spotted on plate, Fab in solution; blank spot 169
[11] = target: T2, rHuman Notch-1/Fc Chimera, CF (R&D …); experiment: as above
[12] = target: T3, rHuman CD44/Fc Chimera, CF (R&D Systems …); experiment: as above
[13] = target: T4, rHuman P-Cadherin/Fc Chimera, CF (R&D …); experiment: as above
[14] = target: T5, rHuman Erythropoietin R/Fc Chimera, CF …; experiment: as above
[15] = target: T1, rHuman HGF R/c-MET/Fc Chimera, CF (R&D …); experiment: ECL Multispot (MSD), antigen spotted on plate, Fab in solution; blank spot 438
[16] = target: T2, rHuman Notch-1/Fc Chimera, CF (R&D …); experiment: as above
[17] = target: T3, rHuman CD44/Fc Chimera, CF (R&D Systems …); experiment: as above
[18] = target: T4, rHuman P-Cadherin/Fc Chimera, CF (R&D …); experiment: as above
[19] = target: T5, rHuman Erythropoietin R/Fc Chimera, CF …; experiment: as above
[20] = target: T1, rHuman HGF R/c-MET/Fc Chimera, CF (R&D …); experiment: ECL Multispot (MSD), antigen spotted on plate, Fab in solution; blank spot 200
[21] = target: T2, rHuman Notch-1/Fc Chimera, CF (R&D …); experiment: as above
[22] = target: T3, rHuman CD44/Fc Chimera, CF (R&D Systems …); experiment: as above
[23] = target: T4, rHuman P-Cadherin/Fc Chimera, CF (R&D …); experiment: as above
[24] = target: T5, rHuman Erythropoietin R/Fc Chimera, CF …; experiment: as above
[25] = target: T1, rHuman HGF R/c-MET/Fc Chimera, CF (R&D …); experiment: ECL Multispot (MSD), antigen spotted on plate, Fab in solution; blank spot 239
[26] = target: T2, rHuman Notch-1/Fc Chimera, CF (R&D …); experiment: as above
[27] = target: T3, rHuman CD44/Fc Chimera, CF (R&D Systems …); experiment: as above
[28] = target: T4, rHuman P-Cadherin/Fc Chimera, CF (R&D …); experiment: as above
[29] = target: T5, rHuman Erythropoietin R/Fc Chimera, CF …; experiment: as above
[30] = target: T1, rHuman HGF R/c-MET/Fc Chimera, CF (R&D …); experiment: ECL Multispot (MSD), antigen spotted on plate, Fab in solution; blank spot 479
[31] = target: T2, rHuman Notch-1/Fc Chimera, CF (R&D …); experiment: as above
[32] = target: T3, rHuman CD44/Fc Chimera, CF (R&D Systems …); experiment: as above
[33] = target: T4, rHuman P-Cadherin/Fc Chimera, CF (R&D …); experiment: as above
[34] = target: T5, rHuman Erythropoietin R/Fc Chimera, CF …; experiment: as above

T1 sequence (P08581 25-932, change not shown): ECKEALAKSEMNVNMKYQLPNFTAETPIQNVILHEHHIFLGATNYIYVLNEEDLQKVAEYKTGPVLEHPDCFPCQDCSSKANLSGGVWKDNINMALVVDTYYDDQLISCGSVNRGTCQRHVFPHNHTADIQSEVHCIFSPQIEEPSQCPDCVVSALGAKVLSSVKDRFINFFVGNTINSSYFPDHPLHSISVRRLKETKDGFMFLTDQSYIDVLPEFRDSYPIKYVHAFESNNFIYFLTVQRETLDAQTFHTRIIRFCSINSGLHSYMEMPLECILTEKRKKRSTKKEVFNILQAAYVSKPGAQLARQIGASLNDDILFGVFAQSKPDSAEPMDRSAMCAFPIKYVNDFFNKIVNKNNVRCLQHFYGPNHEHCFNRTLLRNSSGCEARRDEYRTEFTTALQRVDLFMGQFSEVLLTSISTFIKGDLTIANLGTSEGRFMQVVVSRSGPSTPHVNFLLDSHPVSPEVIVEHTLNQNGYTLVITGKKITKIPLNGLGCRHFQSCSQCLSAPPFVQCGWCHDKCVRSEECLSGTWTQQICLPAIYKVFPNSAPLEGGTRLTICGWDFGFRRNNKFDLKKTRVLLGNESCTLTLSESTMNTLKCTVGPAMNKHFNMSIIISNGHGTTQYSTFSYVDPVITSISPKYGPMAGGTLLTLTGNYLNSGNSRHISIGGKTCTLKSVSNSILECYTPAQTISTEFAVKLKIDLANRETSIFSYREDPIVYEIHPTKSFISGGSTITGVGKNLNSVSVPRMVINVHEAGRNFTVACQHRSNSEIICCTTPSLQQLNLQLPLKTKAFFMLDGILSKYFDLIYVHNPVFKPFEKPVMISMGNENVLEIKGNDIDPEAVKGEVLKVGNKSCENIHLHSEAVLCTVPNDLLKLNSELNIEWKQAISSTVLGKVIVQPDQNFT

B1: Fab VH1-46_IGHD6-6*01_IGHJ1*01 S102A/S103P/S104F/H111F (APFF) & L6_IGKJ1*01 W94R (Fab, V domains shown)
VH: QVQLVQSGAEVKKPGASVKVSCKASGYTFTSYYMHWVRQAPGQGLEWMGIINPSGGSTSYAQKFQGRVTMTRDTSTSTVYMELSSLRSEDTAVYYCAREEYAPFSAEYFQFWGQGTLVTVSS
VL: EIVLTQSPATLSLSPGERATLSCRASQSVSSYLAWYQQKPGQAPRLLIYDASNRATGIPARFSGSGSGTDFTLTISSLEPEDFAVYYCQQRSNRPPWTFGQGTKVEIKR
notes: also called APFF / W94R
B1 was tested, and the ECL signal [1] was 293, the ECL signal [2] was 375 and the ECL signal [3] was 443. It also gave an ECL signal [4] of 364 and an ECL signal [5] of 546.

B2: Fab VH1-46_IGHD6-6*01_IGHJ1*01 S102A/S103P/S104F/H111F (APFF) & L6_IGKJ1*01 N93H (Fab, V domains shown)
VH: B1 VH
VL: B1 VL with N93H, R94W
notes: also called APFF / N93H
For B2, the ECL signal [6] was 342, the ECL signal [7] was 345 and the ECL signal [8] was 293. The ECL signal [9] was 425.

B3: Fab VH1-46_IGHD6-6*01_IGHJ1*01 S102A/S103P/S104F/H111F (APFF) & L6_IGKJ1*01 W94P (Fab, V domains shown)
VH: B1 VH
VL: B1 VL with R94P
notes: also called APFF / W94P
In the case of B3, the ECL signal [10] is reported as 275, the ECL signal [11] is reported as 228 and the ECL signal [12] is reported as 241. The ECL signal [13] was 268 and the ECL signal [14] was 292.

B4: Fab VH1-46_IGHD6-6*01_IGHJ1*01 S102A/S103P/S104F/H111F (APFF) & L6_IGKJ1*01 W94T (Fab, V domains shown)
VH: B1 VH
VL: B1 VL with R94T
notes: also called APFF / W94T
B4 was tested, and the ECL signal [15] was 377, the ECL signal [16] was 418 and the ECL signal [17] was 453. The ECL signal [18] was 481 and the ECL signal [19] was 432.

B5: Fab VH1-46_IGHD6-6*01_IGHJ1*01 S102A/S103P/S104F/H111F (APFF) & L6_IGKJ1*01 W94L (Fab, V domains shown)
VH: B1 VH
VL: B1 VL with R94L
notes: also called APFF / W94L
For B5, the ECL signal [20] was 187, the ECL signal [21] was 369 and the ECL signal [22] was 309. It also gave an ECL signal [23] of 296 and an ECL signal [24] of 333.

B6: Fab VH1-46_IGHD6-6*01_IGHJ1*01 S102A/S103P/S104F/H111F (APFF) & L6_IGKJ1*01 N93Q (Fab, V domains shown)
VH: B1 VH
VL: B1 VL with N93Q, R94W
notes: also called APFF / N93Q
Work on B6 yielded an ECL signal [25] of 309, an ECL signal [26] of 310 and an ECL signal [27] of 452. The ECL signal [28] was 304 and the ECL signal [29] was 477.

B7: Fab VH1-46_IGHD6-6*01_IGHJ1*01 S102A/S103P/S104F/H111F (APFF) & L6_IGKJ1*01 W94S (Fab, V domains shown)
VH: B1 VH
VL: B1 VL with R94S
notes: also called APFF / W94S
Binder B7 has an ECL signal [30] of 453, an ECL signal [31] of 486 and an ECL signal [32] of 469. It also gave an ECL signal [33] of 466 and an ECL signal [34] of 506.
